Laboratory results reported in patent US20060292157A1 (TRUSTEES OF COLUMBIA UNIVERSITY IN THE CITY OF NEW YORK, published 2006).

Target: T1, BiP/GRP78 (endogenous) (human (endogenous in human HeLa cells), UniProt P11021 19-654)
T1 construct: Immunoprecipitated from cell lysates with BiP/GRP78 antibodies; also called ER chaperone BiP/GRP78
Assay: co-IP with BiP/GRP78 antibodies, blot with Flag antibodies; wild type against C/F mutants; HeLa and P69 cells
Source text: These mutants were used to examine whether disruption of these regions altered interaction with BiP/GRP78 in HeLa (FIG. 11E) and P69 cells. BiP/GRP78 was immunoprecipitated using BiP/GRP78 antibodies and the membrane was probed with Flag antibodies (FIG. 11E). The C/F helix mutants of MDA-7/1IL-24 and M4 lost their ability to bind to BiP/GRP78 (FIG. 11E).
Cells were infected with Ad.vec, Ad.M4 or Ad.mda-7 or transfected with various plasmid (Flag tagged MDA7 or M4 and Myc tagged BiP) constructs in a 100-mm dish and after 48 h cells were rinsed with ice-cold phosphate buffered saline (PBS). Cells were lysed in 1 ml of immunoprecipitation buffer containing 25 mM Tris-Cl pH8.0, 137 mM NaCl, 2.5 mM KCl, 1% Triton X-100 and protease inhibitor mix. Cells were scrapped from the plates, transferred into microfuge tubes and rotated at 4° C. for 30 minutes. Tubes were centrifuged for 10 min at 13,000 rpm and 10 μl of supernatant were incubated with 50% Protein A agarose and rotated at 4° C. for 1 h to eliminate non-specific interactions. Samples were centrifuged and mixed with anti BiP/Grp78 or 9E10 myc monoclonal antibodies (1:200) dilution and rotated overnight at 4° C. Immune-complexes were precipitated with 25 μl of 50% protein A agarose for 2 h. […]

T1 sequence (P11021 19-654 limits assumed): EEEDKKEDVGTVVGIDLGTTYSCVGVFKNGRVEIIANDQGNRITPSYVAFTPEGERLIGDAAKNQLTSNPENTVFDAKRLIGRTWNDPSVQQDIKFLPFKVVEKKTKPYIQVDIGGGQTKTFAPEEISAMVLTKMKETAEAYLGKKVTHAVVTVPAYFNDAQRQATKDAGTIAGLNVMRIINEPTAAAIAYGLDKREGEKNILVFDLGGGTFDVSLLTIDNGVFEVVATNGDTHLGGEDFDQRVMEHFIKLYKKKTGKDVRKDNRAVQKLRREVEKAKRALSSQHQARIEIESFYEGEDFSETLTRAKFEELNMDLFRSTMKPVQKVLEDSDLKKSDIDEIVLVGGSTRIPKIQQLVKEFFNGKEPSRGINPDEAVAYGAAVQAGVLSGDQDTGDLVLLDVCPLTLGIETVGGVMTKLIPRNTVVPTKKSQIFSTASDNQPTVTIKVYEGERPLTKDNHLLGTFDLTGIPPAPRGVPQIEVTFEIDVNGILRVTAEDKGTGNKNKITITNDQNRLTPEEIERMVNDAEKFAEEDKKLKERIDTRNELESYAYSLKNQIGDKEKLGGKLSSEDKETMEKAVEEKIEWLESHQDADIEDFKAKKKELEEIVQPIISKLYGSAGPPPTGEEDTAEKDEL

binding result: binds
B1: Flag-tagged M4 (amino acids 104-206 of MDA-7/IL-24, pCMV3xFlag) (other)
chain: ESCYLVHTLLEFYLKTVFKNYHNRTVEVRTLKSFSTLANNFVLIVSQLQPSQENEMFSIRDSAHRRFLLFRRAFKQLDVEAALTKALGEVDILLTWMQKFYKL
notes: Transiently expressed in HeLa cells; also called Flag M4; not shown: three Flag tags at the N-terminus from vector pCMV3xFlag (Sigma)
